Assay results: patent US20020132976A1, “Immunogenic peptides derived from prostate-specific antigen (PSA) and uses thereof” (priority 2000, published 2002)
Marks after values point to notes of the source that are not given here.

Experiments:
[1] = biological target: T1, HLA-A0201 molecules on T2 cells (Homo sapiens, UniProt P04439, D140Y/D185E/D98H/E176V/E277Q/G131W/G231S/I119V/I121R/I166T/I218V/L300P/L318F/N151K/N90K/P208A/P217A/Q86G/Q94H/R138H/R169H/T345S); assay: Capacity of PSA derived peptides to bind and stabilize HLA-A0201 molecules on T2 cells (BB7.2 antibody, flow cytometry); type: cell-based; conditions: for Fluorescence Index (FI): T2 cells; for HLA-A0201 binding as judged by Fluorescence Index (FI) values: membrane-bound HLA-A0201 molecules on T2 cells
T1 construct: endogenous in cells; host or cells: T2 cell line (Dr. Peter Creswell, Yale University)
Procedure: The ability of the PSA derived peptides described in Table 1 to stabilize membrane-bound HLA-A0201 molecule was assessed utilizing the T2 cell line (Dr. Peter Creswell, Yale University). The cell line has been well documented to have a defective TAP (i.e. Transporter for Antigen Processing) transporter function. As a result, the majority of intracellularly generated peptides are not transported into the endoplasmic reticulum and thus are unable to associate with newly synthesized HLA class 1 MHC molecules (i.e. HLA-A0201; Salter, R D and Creswell, P. (1986) EMBO J 5:943). […] The stability of the surface HLA-A0201 molecules can be restored upon interaction with suitable exogenous peptides. The stabilization of the conformation of the class 1 MHC molecules is accompanied by the formation of an immunodominant epitope recognized by a mouse monoclonal antibody (designated BB7.2; American Type Culture Collection (ATCC)). Thus, the detection of this specific epitope is indicative of stable membrane-bound HLA-A0201 molecules loaded with peptide. Subsequent dissociation of peptides from the HLA class 1 MHC molecules results in the loss of BB7.2 monoclonal antibody binding.
T2 cells were propagated in Iscove's complete medium (iscove's medium supplemented with 10% heat-inactivated bovine serum, 120.0 units per ml of penicillin G sodium, 120 μg per ml of streptomycin sulphate, and 0.35 mg per ml of L-glutamine). The ability of PSA peptides (Table 1) to bind and stabilize surface HLA-A0201 molecules on T2 cells was determined utilizing a protocol documented in the art (Deng, Y. (1997) J Immune 158:1507-1515). In essence, 0.5×10^6 T2 cells were incubated with 125.0 μM of the test peptide in 200.0 μl of serum-free culture medium (Iscove's medium supplemented with 120.0 units per ml of penicillin G sodium, 120.0 μg per ml of streptomycin sulphate and 0.35 mg per ml of L-glutamine) overnight at 37° C. Subsequently, cells were washed twice with Iscove's medium (without bovine serum) to remove free PSA peptide. To the cell pellet was added 1.0 ml of complete Iscove's medium (supplemented with fetal bovine serum (10% final)) containing 5.0 μg per ml of brefeldin A (Sigma), 12.5 μg per ml of anisomycin (Sigma) and 5.0 μg per ml of cyclohexamide (Sigma). […] The cells were subsequently incubated 30 min on ice prior to two washes with ice-cold PBA (phosphate buffered saline (pH 7.2) containing 2.0% bovine serum). 100.0 μl of PBA containing 5.0 μg of monoclonal antibody BB7.2 was added to each test sample. The reaction was allowed to proceed on ice for 45 min. Cells were then washed three times with ice-cold PBA. The binding of BB7.2 was detected via the addition of 100.0 μl of PBA containing […] of goat anti-mouse IgG-Fc fluorescein (FITC) conjugate (BETHYL Laboratories Inc.). After a 30 min incubation on ice, cells were twice washed with ice-cold PBA, and twice with ice-cold PBS (pH 7.2). Cells were immediately fixed by the addition of 50.0 μl of 1.0% paraformaldehyde. Samples were analyzed by Flow Cytometry. Results were expressed in units of Fluorescence Index (FI), calculated by the equation: […]
Mean Fluorescence (MF) of experimental sample (peptide treated)−MF of control sample (cells not peptide treated) MF of control sample (cells not peptide treated)
An FI value of 0.5 or greater was deemed to be significant.

A2Kb transgenic mouse = assay: Immunogenicity of PSA peptide in A2Kb transgenic mice (51Cr-release CTL assay); type: in vivo; conditions: 100.0 μg peptide subcutaneously in IFA with I-Ab-restricted peptide; spleenocytes re-stimulated in vitro; 4 hr 51Cr-release, P815-A2Kb targets; FIG. 1
Procedure: The A2Kb transgenic mouse was used to assess the immunogenicity of the HLA-A0201 binding PSA peptides. Mice of the B1O background (transgenic for the A2Kb chimeric gene) were purchased from the Scripps Clinic in California, USA. Mice were injected subcutaneously at the base of the tail with a dose of inoculum prepared by emulsifying 100.0 μg of the test peptide and 100.0 μg of an I-A^b-restricted peptide (described in Milich, D. R. et al. (1987) J. Immune 139: 1223-1231) in incomplete Freund's adjuvant (IFA). Spleens of the experimental animals were collected on the 10th or 11th day post immunization. Spleenocytes of the experimental mice were prepared and cultured to enrich for CTLs before being assessed for effector activity. In vitro re-stimulation of the in vivo generated CTLs was performed by co-culturing in a 25 cm^2 tissue culture flask 3×10^7 responder cells (i.e. spleenocytes) with 1.3×10^7 irradiated autologous LPS (lipopolysaccharide)-blasts which had been pulsed with the respective peptide (100.0 μg per 10^8 cells). Cultures were kept in a 37° C., humidified CO2 incubator for 6-7 days before being tested for effector function in a standard 4 hr in vitro ^51Cr-release CTL assay as follows. The responders were harvested from the 6-7 day cultures and washed twice with RPMI-1640 medium (without bovine serum). […] Supernatant aliquots were then removed and counted for radioactivity.

[2] = 125.0 μM peptide overnight at 37° C., then 3.0 hr de-stabilization step, FI of 0.5 or greater deemed significant

Sequence | Fluorescence Index (FI) [1, 2] | HLA-A0201 binding as judged by Fluorescence Index (FI) values [1] | Fluorescence Index (FI) ([1]; 125.0 μM peptide, analysis did not include 3 hr de-stabilization step) | Immunogenicity / epitope-specific CTL response (A2Kb transgenic mouse)
MWVPVVFL (CLP313) [CLP-313, PSA derived peptide, preproprotein positions 1-8] | 1.0 | demonstrated HLA-A0201 binding |  | 
DLPTQEPAL (CLP315) [CLP-315, PSA derived peptide, preproprotein positions 140-148] | 0 |  |  | 
VLVHPQWVL [CLP-314] | 1.1 | demonstrated HLA-A0201 binding |  | 
PLYDMSLLK (CLP320) [CLP-320] |  | does not exhibit binding | 0.2** | 
KLQCVDLHV (CLP316) [CLP-316, PSA derived peptide, preproprotein positions 170-178] | 2.7 | demonstrated HLA-A0201 binding |  | immunogenic and capable of eliciting an epitope-specific CTL response
DLHVISNDV [CLP-317] | 0 |  |  | 
